The values below come from patent US20070213263A1, “Methods And Compositions Using Adiponectin For Treatment Of Cardiac Disorders And For Stimulation Of Angiogenesis” (The Trustees of Boston University, priority 2003, published 2007).

One assay deals with rat cardiac myocytes. In words: Agonist-stimulated hypertrophy of cultured neonatal rat ventricular myocytes. The class given is cell-based. As for the experimental part:
[^3H] leucine incorporation was determined as previously described 74.
For histological analysis, the mice were sacrificed and LV tissue was obtained at 7 days after TAC. Tissue was embedded in OCT compound (Miles, Elkhart, Ind.) and snap-frozen in liquid nitrogen. Tissue slices (5 μm in thickness) were prepared. Tissue sections were stained with hematoxylin and eosin or with Masson trichrome. The myocyte cross sectional area was calculated by measuring 200 cells per section. To determine sarcomeric F-actin organization, cultured myocytes were stained with FITC-conjugated phalloidin (Sigma, St. Louis, Mo.).

Assay [1] relates to HUVECs. The assay is described as follows: Tube formation assay, HUVECs on Matrigel. Conditions: adiponectin 30 μg/ml, VEGF 20 ng/ml, 18 h. It counts as cell-based, human.
Description: The formation of vascular-like structures by HUVECs on growth factor-reduced Matrigel (Becton Dickinson) was performed as previously described^28. Twenty-four-well culture plates were coated with Matrigel according to the manufacturer's instructions. […] The degree of tube formation was quantified by measuring the length of tubes in 3 randomly chosen fields from each well using the angiogenic activity quantification program (Kurabo, Osaka, Japan). […]
Assay [2] relates to HUVECs. In words: Migration assay (modified Boyden chamber). It counts as cell-based, human. Conditions: adiponectin 30 μg/ml, VEGF 20 ng/ml, 4 h.
Description: Migration activity was measured using a modified Boyden chamber assay. Serum-starved cells were trypsinized and resuspended in EGM-2 with 0.5% FBS. Cell suspension (250 μl, 2.0×10^4 cells/well) were added to the transwell fibronectin-coated insert (6.4 mm diameter, 3.0 μm pore size, Becton Dickinson, Franklin Lakes, N.J.). Then 750 μl of EGM-2 with 0.5% FBS supplemented with adiponectin (30 μg/ml), VEGF (20 ng/ml) or bovine serum albumin (BSA) (30 μg/ml) were added to lower chamber and incubated for 4 h. Migrated cells on the lower surface of the membrane were fixed, stained with Giemsa stain solution and eight random microscopic fields per well were quantified. All assays were performed in triplicate.
The next assay concerns eNOS (Ser 1179). In words: Western blot, eNOS phosphorylation in HUVECs. Conditions: adiponectin 30 μg/ml. The class given is cell-based, human.
Assay [3] has as its system AMPK (Thr 172 of the α subunit). In words: Western blot, AMPK phosphorylation in cultured cardiac myocytes. Conditions: adiponectin 30 μg/ml, time course. It counts as cell-based, rat.
For another assay, the system named is Akt (Ser 473). The assay is described as follows: Western blot, Akt phosphorylation in HUVECs. The class given is cell-based, human. Conditions: adiponectin 30 μg/ml, time course.
The test system of assay [4] is ERK (Thr 202/Tyr 204). In words: Western blot, ERK phosphorylation in HUVECs. It counts as cell-based, human. Conditions: adiponectin 30 μg/ml, time course. As to the method:
Human umbilical vein endothelium cells (HUVECs) were cultured in endothelial cell growth medium-2 (EGM-2, San Diego, Calif.). Before each experiment, cells were placed in endothelial cell basal medium-2 (EBM-2, San Diego, Calif.) with 0.5% fetal bovine serum (FBS) for 16 h for serum-starvation. Experiments were performed by the addition of the indicated amount of mouse recombinant adiponectin, VEGF or vehicle for the indicated lengths of time. In some experiments, HUVECs were infected with adenoviral constructs encoding dominant-negative AMPKα2^28, dominant-negative AKT1^19 or green fluorescence protein (GFP) at a multiplicity of infection (MOI) of 50 for 24 h. In some experiments, HUVECs were pretreated with LY294002 (10 μM) or vehicle for 1 h before stimulation with adiponectin. Cell lysates were resolved by SDS-PAGE. The membranes were immunoblotted with the indicated antibodies at a 1:1000 dilution followed by the secondary antibody conjugated with horseradish peroxidase (HRP) at a 1:5000 dilution.

Assay [5] concerns ERK (Thr 202/Tyr 204). The assay is described as follows: Western blot, ERK phosphorylation in cultured cardiac myocytes. It counts as cell-based, rat.
The subject of assay [6] is AMPK (Thr 172 of α subunit). The assay is described as follows: Western blot, AMPK phosphorylation in HUVECs. It counts as cell-based, human. The conditions noted are these: adiponectin 30 μg/ml.
Description: (§1) Human umbilical vein endothelium cells (HUVECs) were cultured in endothelial cell growth medium-2 (EGM-2, San Diego, Calif.). Before each experiment, cells were placed in endothelial cell basal medium-2 (EBM-2, San Diego, Calif.) with 0.5% fetal bovine serum (FBS) for 16 h for serum-starvation. Experiments were performed by the addition of the indicated amount of mouse recombinant adiponectin, VEGF or vehicle for the indicated lengths of time. In some experiments, HUVECs were infected with adenoviral constructs encoding dominant-negative AMPKα2^28, dominant-negative AKT1^19 or green fluorescence protein (GFP) at a multiplicity of infection (MOI) of 50 for 24 h. In some experiments, HUVECs were pretreated with LY294002 (10 μM) or vehicle for 1 h before stimulation with adiponectin. Cell lysates were resolved by SDS-PAGE. The membranes were immunoblotted with the indicated antibodies at a 1:1000 dilution followed by the secondary antibody conjugated with horseradish peroxidase (HRP) at a 1:5000 dilution. ECL-PLUS Western Blotting Detection kit (Amersham Pharmacia Biotech, Piscataway, N.J.) was used for detection.
In another assay the test system is endothelial cells. The assay is described as follows: Cell-wounding assay (unpublished data). It counts as cell-based.
The test system of assay [7] is CD31-positive cells in Matrigel plugs. The assay is described as follows: Mouse angiogenesis assay (Matrigel plug). The conditions noted are these: adiponectin 100 μg/ml in plug, subcutaneous, 14 days. The class given is in vivo, C57BL mice. As for the experimental part: The formation of new vessels in vivo was evaluated by Matrigel plug assay as described previously^28. For these experiments, 400 μl of Matrigel containing adiponectin (100 μg/ml) or vehicle was injected subcutaneously into the abdomen of C57BL mice. Mice were sacrificed 14 days after the injection. The Matrigel plugs with adjacent subcutaneous tissues were carefully recovered by en bloc resection, fixed in 4% paraformaldehyde, dehydrated with 30% sucrose, and embedded in OCT compound (GTI Microsystems, Tempe, Ariz.) in liquid nitrogen. Immunohistostaining for CD31 (PECAM-1: Becton Dickinson) were performed on adjacent frozen sections. Primary antibody was used at a 1:50 dilution followed by incubation of secondary antibody (HRP-conjugated anti-rat IgG at a 1:100 dilution). The AEC Substrate Pack (Biogenex, San Ramon, Calif.) was used for detection. CD31-positive capillaries were counted in 4 randomly chosen low-power (×100) microscopic fields.

Assay [8] relates to cornea neovascularization. In words: Rabbit corneal angiogenesis assay. It counts as in vivo, New Zealand white rabbits. Conditions: day 7. As to the method:
Rabbit corneal assay was performed with minor modification as previously described^33. Male New Zealand white rabbits weighing 3.0-3.9 kg were used. Two pockets, about 2×3 mm size and 5 mm apart, were surgically prepared in the cornea extending toward a point 2 mm from the limbus. Hydron pellets, which contain indicated amount of adiponectin, VEGF (100 ng) or PBS and enables the slow release of it^34, were implanted into the pocket. On day 7 after surgery, eyes were photographed and cornea neovascularization was examined in a single blind manner. The angiogenic activity was evaluated on the basis of the number and growth rate of newly formed capillaries. An angiogenic score was calculated (vessel density×distance from limbus)^32. A density value of 1 corresponded to 0-25 vessels per cornea, 2 from […], 3 from 50-75, 4 from 75-100 and 5 for >100 vessels.

The mark [9] stands for this setting: adiponectin 30 μg/ml pretreatment, Pro 2 μM, NE 1 μM, 48 hours.

Description for Akt (Ser 473): as §1
Description for eNOS (Ser 1179): as §1

Turning to `N#CC(=C(/N)Sc1ccccc1N)/C(C#N)=C(\N)Sc1ccccc1N` [U0126, reference compound], the “reduction of αAR-induced hypertrophy” value in the assay with rat cardiac myocytes (p<0.01 vs. control) is on record as 82.1±7.8%.

In the case of VEGF [reference compound], in the assay with HUVECs [1], the “formation of capillary-like tubes (tube length)” value is “a trend toward increased tube length in the VEGF-treated cultures relative to adiponectin, but this was not statistically significant”. For the same molecule, the HUVEC migration result with HUVECs [2] is “a trend toward greater migration with VEGF compared to adiponectin, but this was not statistically significant”.

B1: adiponectin: Recombinant histidine-tagged mouse adiponectin (amino acids 15-247) expressed in bacteria; adipocyte specific cytokine (protein, UniProt Q15848 19-244, looked up)
Adiponectin: ETTTQGPGVLLPLPKGACTGWMAGIPGHPGHNGAPGRDGRDGTPGEKGEKGDPGLIGPKGDIGETGVPGAEGPRGFPGIQGRKGEPGEGAYVYRSAFSVGLETYVTIPNMPIRFTKIFYNQQNHYDGSTGKFHCNIPGLYYFAYHITVYMKDVKVSLFKKDKAMLFTYDQYQENNVDQASGSVLLHLEVGDQVWLQVYGEGERNGLYADNDNDSTFTGFLLYHDTN
With B1, in the assay on HUVECs [1], the “formation of capillary-like tubes (tube length)” value is recorded as “promoted the formation of capillary-like tubes in a manner similar to VEGF”. Also, in the assay with eNOS (Ser 1179), the eNOS protein levels entry was “no effect on eNOS protein levels”. The “eNOS phosphorylation at Ser 1179” value in the assay with eNOS (Ser 1179) (time course) is “time-dependent increase in eNOS phosphorylation”. Also, the “phosphorylation of AMPK” value in [3] is on record as “stimulated the phosphorylation of AMPK in cultured cardiac myocytes in a time-dependent manner”. In addition, in the assay with rat cardiac myocytes (setting [9]), the “αAR-stimulated increase in protein synthesis ([3H] leucine incorporation)” value is listed as “prevented” and the “αAR-stimulated re-organization of sarcomeric actin” value is “prevented”. The AngII-stimulated myocyte hypertrophy entry with rat cardiac myocytes (data not shown) was “suppressed”. Also, the “αAR-stimulated increase in myocyte size” value in the assay with rat cardiac myocytes (pretreatment, then Pro 2 μM and NE 1 μM for 48 hours) is “prevented”. In the assay on rat cardiac myocytes (without αAR stimulation), the “actin organization, agent alone” value is given as “no effect”; the “myocyte size, agent alone” value is on record as “no effect”; the “protein synthesis, agent alone” value was “no effect”. Moreover, in the assay with Akt (Ser 473), the Akt phosphorylation entry was “time-dependent increase in Akt phosphorylation”. Also, in the assay with ERK (Thr 202/Tyr 204) [4], the “phosphorylation of ERK” value is given as “no effect on the phosphorylation of ERK”. For the same molecule, the “αAR-stimulated ERK phosphorylation” value in the assay with ERK (Thr 202/Tyr 204) [5] (adiponectin 30 μg/ml pretreatment, Pro 2 μM, NE 1 μM) is “suppressed”. For the same molecule, in the assay with ERK (Thr 202/Tyr 204) [5] (data not shown), the “AngII-stimulated ERK phosphorylation” value is “suppressed AngII-stimulated ERK phosphorylation”. Further, the “ERK phosphorylation, agent alone” value in the assay with ERK (Thr 202/Tyr 204) [5] (without αAR stimulation) is given as “no effect on ERK phosphorylation”. Further, the “time of maximal AMPK phosphorylation” value in assay [6] was found to be 15 min. The “phosphorylation of AMPK” value in [6] (time course) is “enhanced the phosphorylation of AMPK in a time-dependent manner”. In addition, in the assay on endothelial cells, the “endothelial migration in cell-wounding assay” value is “induced the endothelial migration”. For the same molecule, the “density of CD31-positive cells in Matrigel plugs” value in assay [7] was “significantly higher density of CD31-positive cells compared with controls”. For the same molecule, the HUVEC migration entry in the assay with HUVECs [2] was “significantly stimulated HUVEC migration”. In addition, in assay [8] (adiponectin 1 μg and 10 μg vs VEGF 100 ng), the “stimulatory effect on corneal neovascularization relative to VEGF” value is on record as “comparable with that of VEGF”. Further, the “neovascularization in corneal implants” value in assay [8] (pellets with adiponectin 1 μg and 10 μg) is on record as “markedly accelerated compared with controls”.
